In patent US20020164304A1 (TRANSGENE, published 2002):

Target: T1, human α1-antitrypsin (human, UniProt P01009 25-418)
T1 construct: Secreted recombinant human α1AT found in culture supernatant; also called α1AT; human α1AT
Assay: supernatant incubated with active NE (3, 30, 300 nM; 30 min, 23°), then immunoprecipitation, SDS-PAGE and autoradiography
Method: (B) At various times after infection, the lungs were minced, incubated for 1 hour in methionine-free LHC-8 medium (37°), and then incubated for 24 hours in medium with (³⁵S)-methionine (1 ml medium/150 mg tissue; 500 μCi/ml). The supernatant was then evaluated by immunoprecipitation with a rabbit antibody to human α1AT (Boehringer Mannheim), SDS-polyacrylamide gels, and autoradiography as in FIG. 2E. Trichloroacetic acid-precipitable radioactivity was evaluated by immunoprecipitation (for lanes 10-15, 2×10⁶ cpm; for lanes 16-18, 1×10⁶ cpm). Autoradiogram exposures for lanes 10 to 15 were identical; lanes 16-18 were evaluated at a different time, and the exposures adjusted such that the intensity of the α1AT band without NE was similar to lane 13. The ability of the synthesized human α1AT to inhibit its natural substrate, NE, was evaluated by incubating the supernatant with various dilutions of active NE (30 min, 23°) before immmunoprecipitation.
The de novo expression of the human α1AT protein lasted at least 1 week (lane 15) and the secreted human α1AT was functional, as shown by its ability to form a complex with its natural target, human neutrophil elastase (NE) (lanes 16-18).

T1 sequence (P01009 25-418 limits assumed): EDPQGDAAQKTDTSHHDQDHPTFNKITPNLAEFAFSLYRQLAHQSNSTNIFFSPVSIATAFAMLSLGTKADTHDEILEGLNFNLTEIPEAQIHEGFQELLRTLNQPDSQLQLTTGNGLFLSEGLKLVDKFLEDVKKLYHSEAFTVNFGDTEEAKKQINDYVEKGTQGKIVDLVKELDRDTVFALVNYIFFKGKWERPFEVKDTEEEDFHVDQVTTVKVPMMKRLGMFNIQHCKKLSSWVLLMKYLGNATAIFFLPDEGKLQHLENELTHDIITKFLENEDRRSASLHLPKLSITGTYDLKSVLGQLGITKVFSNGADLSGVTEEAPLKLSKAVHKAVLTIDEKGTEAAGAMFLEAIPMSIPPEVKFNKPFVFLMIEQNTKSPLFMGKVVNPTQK

B1: human neutrophil elastase (enzyme, UniProt P08246 30-247, looked up)
chain: IVGGRRARPHAWPFMVSLQLRGGHFCGATLIAPNFVMSAAHCVANVNVRAVRVVLGAHNLSRREPTRQVFAVQRIFENGYDPVNLLNDIVILQLNGSATINANVQVAQLPAQGRRLGNGVQCLAMGWGLLGRNRGIASVLQELNVTVVTSLCRRSNVCTLVRGRQAGVCFGDSGSPLVCNGLIHGIASFVRGGCASGLYPDAFAPVAQFVNWIDSIIQ
notes: Described as active NE
  binding result: binds
